In assay [1] the target is T1, His6Gal80, P04387.
T1 chain: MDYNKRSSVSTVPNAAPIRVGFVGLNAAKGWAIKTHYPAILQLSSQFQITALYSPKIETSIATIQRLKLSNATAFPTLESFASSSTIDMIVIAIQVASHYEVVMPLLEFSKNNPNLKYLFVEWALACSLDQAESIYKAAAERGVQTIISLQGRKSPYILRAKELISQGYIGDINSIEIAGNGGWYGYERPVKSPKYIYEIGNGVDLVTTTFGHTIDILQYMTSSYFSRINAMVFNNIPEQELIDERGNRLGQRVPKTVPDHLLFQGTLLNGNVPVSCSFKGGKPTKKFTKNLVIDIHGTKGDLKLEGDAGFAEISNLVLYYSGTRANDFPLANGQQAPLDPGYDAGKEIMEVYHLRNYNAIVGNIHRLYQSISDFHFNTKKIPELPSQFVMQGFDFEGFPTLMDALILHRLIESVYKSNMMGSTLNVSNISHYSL
Nature of the assay: dilution assay on TentaGel beads, Western blot. In general terms: Immunoblotting shows a protein as a band on a membrane.

In assay [2] the target is T1, His6Gal80, P04387. Briefly: fluorescence polarization after adding excess unlabeled peptide. Background: Fluorescence polarisation rises when a labelled molecule tumbles more slowly, as on binding a larger partner.
The target of assay [3] is T1, His6Gal80, P04387. Nature of the assay: capture of dilute Gal80 (0.4 nM) by TentaGel-Gal80bp, Western blot.
Assay [4] has as its target T1, His6Gal80, P04387. Briefly: fluorescence polarization titration of fluorescein-labeled peptide in solution.
The target in assay [5] is T1, His6Gal80, P04387. Briefly: capture of dilute Gal80 by TentaGel-Gal80bp, Western blot against a calibration blot.
Assay [6] addresses T1, His6Gal80, P04387. Briefly: capture of Gal80 by 2 mg of TentaGel-Gal80bp at the higher protein concentrations, Western blot.
In assay [7] the target is T1, His6Gal80, P04387. Briefly: fluorescence polarization in solution: fluorescein-labelled peptide titrated with Gal80 protein.

In the assay with His6Gal80, P04387 [1], YDQDMQNNTFDDLFWKEGHR (modifications not checked) [Gal80bp] yielded a bound protein left on the beads (percent of the original level) of 50%. The molecule also had a half-life of the complex in solution with His6Gal80, P04387 [2] below 10 s. Moreover, the percent of the protein bound to the beads in the assay with His6Gal80, P04387 [3] stood at 100%. For the same molecule, the Kd with His6Gal80, P04387 [4] was 300 nM; with His6Gal80, P04387 [5], below 0.4 nM; with His6Gal80, P04387 [7], 200 nM. In the assay with His6Gal80, P04387 [6], the amount of protein retained on the beads was 50 ng.

The term Kd denotes the constant that tells how readily two partners part at equilibrium. A lower Kd goes with tighter binding.

The record behind these values is patent US20040161798A1.
